From paper PMC11074156

What was measured:
[1] = molecular target: ZIKV E protein expressed from pcDNA3.1+_19CprME-Zika (with prM); assay: co-immunoprecipitation (GFP trap beads), western blot band quantitation; settings: HEK293T/17 cells, 48 h post transfection; parent: est. 1.0; read off a plot
[2] = molecular target: ATF6 (activating transcription factor 6), endogenous (UniProt P18850); assay: as above; settings: HEK293T/17 cells, 48 h post transfection; parent: est. 1.0; read off a plot
ATF6 (activating transcription factor 6), endogenous, sequence (P18850 whole entry): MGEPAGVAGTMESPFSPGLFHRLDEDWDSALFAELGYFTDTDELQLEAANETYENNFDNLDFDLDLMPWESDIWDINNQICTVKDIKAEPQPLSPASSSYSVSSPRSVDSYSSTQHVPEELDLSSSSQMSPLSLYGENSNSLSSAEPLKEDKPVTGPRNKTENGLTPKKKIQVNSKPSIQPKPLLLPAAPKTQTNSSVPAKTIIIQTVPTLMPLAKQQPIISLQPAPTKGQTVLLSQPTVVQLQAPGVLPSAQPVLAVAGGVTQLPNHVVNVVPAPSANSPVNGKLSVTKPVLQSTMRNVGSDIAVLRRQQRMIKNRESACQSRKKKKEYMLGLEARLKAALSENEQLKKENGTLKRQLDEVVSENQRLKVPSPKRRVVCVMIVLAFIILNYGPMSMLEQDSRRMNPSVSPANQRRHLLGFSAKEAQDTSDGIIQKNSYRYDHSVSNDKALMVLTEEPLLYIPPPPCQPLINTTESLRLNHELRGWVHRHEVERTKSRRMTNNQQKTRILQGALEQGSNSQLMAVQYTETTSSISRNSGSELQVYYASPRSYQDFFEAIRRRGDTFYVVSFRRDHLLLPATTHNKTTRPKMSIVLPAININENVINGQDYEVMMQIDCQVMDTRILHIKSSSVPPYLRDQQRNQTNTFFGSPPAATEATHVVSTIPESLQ

EGFP-full length GRP78 (wild type), P11021 K585A, sequence (P11021 19-654 K585A): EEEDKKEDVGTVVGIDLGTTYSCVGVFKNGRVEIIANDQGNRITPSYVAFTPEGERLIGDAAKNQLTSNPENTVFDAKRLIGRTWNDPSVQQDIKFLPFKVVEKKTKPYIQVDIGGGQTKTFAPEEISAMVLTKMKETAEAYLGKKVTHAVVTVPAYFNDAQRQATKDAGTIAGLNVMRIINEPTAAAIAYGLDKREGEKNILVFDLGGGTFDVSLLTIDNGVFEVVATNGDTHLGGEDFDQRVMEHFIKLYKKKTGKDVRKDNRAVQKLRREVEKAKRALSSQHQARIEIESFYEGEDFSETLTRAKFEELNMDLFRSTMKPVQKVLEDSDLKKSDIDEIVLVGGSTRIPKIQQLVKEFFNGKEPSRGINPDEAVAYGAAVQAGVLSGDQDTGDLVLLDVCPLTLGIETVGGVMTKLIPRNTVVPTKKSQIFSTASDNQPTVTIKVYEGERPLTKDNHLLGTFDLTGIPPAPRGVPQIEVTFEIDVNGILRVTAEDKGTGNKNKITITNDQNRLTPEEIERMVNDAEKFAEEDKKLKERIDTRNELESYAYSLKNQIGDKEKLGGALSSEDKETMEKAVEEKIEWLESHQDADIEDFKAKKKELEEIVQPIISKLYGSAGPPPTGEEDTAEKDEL
EGFP-full length GRP78 (wild type), P11021 T518A, sequence (P11021 19-654 T518A): as the sequence (P11021 19-654 K585A) above, with T500A, A567K counted along it
EGFP-full length GRP78 (wild type), P11021 R470E, sequence (P11021 19-654 R470E): as the sequence (P11021 19-654 K585A) above, with R452E, A567K counted along it
EGFP-full length GRP78 (wild type), P11021 K621A, sequence (P11021 19-654 K621A): as the sequence (P11021 19-654 K585A) above, with A567K, K603A counted along it
EGFP-full length GRP78 (wild type), P11021 R492E, sequence (P11021 19-654 R492E): as the sequence (P11021 19-654 K585A) above, with R474E, A567K counted along it
EGFP-full length GRP78 (wild type), P11021 V429Q, sequence (P11021 19-654 V429Q): as the sequence (P11021 19-654 K585A) above, with V411Q, A567K counted along it

EGFP-full length GRP78 (wild type) (from UniProt P11021) H477E
ratio to parent [1]: 1.3

EGFP-full length GRP78 (wild type) (from UniProt P11021) K585A
ratio to parent [1]: 1

EGFP-full length GRP78 (wild type) (from UniProt P11021) K621A
ratio to parent [1]: 0.72

EGFP-full length GRP78 (wild type) (from UniProt P11021) R492E
ratio to parent [1]: 0.47

EGFP-full length GRP78 (wild type) (from UniProt P11021) T518A
ratio to parent [1]: 0.42

EGFP-full length GRP78 (wild type) (from UniProt P11021) V429Q
ratio to parent [1]: 1.1

EGFP-full length GRP78 (wild type), P11021 K585A
ratio to parent [2]: 0.82

EGFP-full length GRP78 (wild type), P11021 K621A
ratio to parent [2]: 0.82

EGFP-full length GRP78 (wild type), P11021 R470E
ratio to parent [2]: 0.95

EGFP-full length GRP78 (wild type), P11021 R492E
ratio to parent [2]: 0.28

EGFP-full length GRP78 (wild type), P11021 T518A
ratio to parent [2]: 0.4

EGFP-full length GRP78 (wild type), P11021 V429Q
ratio to parent [2]: 0.98
